# In the supplement of paper PMC10899765:
# Legend:
# Settings in all cases: 20 nM; 72 h
# MCF10A [1] = experiment: percent viability (nuclei count relative to siNT); higher = more viable cells
# Description: (§1)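 After 72 h, cells were fixed and stained with Hoechst and anti-fibrillarin, and nucleoli per nucleus were counted with CellProfiler. Values are plate-adjusted percent effect for the one-nucleolus and 5+ nucleoli phenotypes, normalised to siNT (0%) and to the positive controls siNOL11 or siKIF11 (100%), as the mean of biological triplicates. Percent viability is the nuclei count relative to siNT.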
# MCF10A [2] = experiment: one-nucleolus phenotype percent effect (relative to siNT 0% and siNOL11 100%); higher = more cells with one nucleolus (ribosome biogenesis inhibition)
# Description: as §1
# MCF10A [3] = experiment: 5+ nucleoli phenotype percent effect (relative to siNT 0% and siKIF11 100%); higher = more cells with five or more nucleoli
# Description: as §1
Sequence,percent viability (MCF10A [1]) [%],one-nucleolus phenotype percent effect (MCF10A [2]) [%],5+ nucleoli phenotype percent effect (MCF10A [3]) [%]
UGGUGGGCACAGAAUCUGGACU [hsa-miR-541-3p],24.6,17.6,-0.0057
CAUCUCUAAGGAACUCCCCCAA [hsa-miR-3675-3p],62,10.4,8.48
GUAUACACCUGAUAUGUGUAUG [hsa-miR-4789-5p],67.5,-15.8,17.3
AAAGACCCAUUGAGGAGAAGGU [hsa-miR-3667-5p],99.1,11.5,-13.6
CUGGGAGGUCAAGGCUGCAGU [hsa-miR-1273h-5p],38.1,11.3,11.3
GCUGCGGGCUGCGGUCAGGGCG [hsa-miR-4734],40.7,-5.38,8.16
AGAUCGACCGUGUUAUAUUCGC [hsa-miR-369-5p],53,-0.708,3.93
UCCAGCUCGGUGGCAC [hsa-miR-4267],34.5,-0.0012,11.3
CAGGUAGAUAUUUGAUAGGCAU [hsa-miR-3927-3p],24.8,-16.5,29.3
CCUCUAGAUGGAAGCACUGUCU [hsa-miR-517-5p],56,2.26,23.9
GAGGCAGAAGCAGGAUGACA [hsa-miR-1910-3p],38.6,25.3,-17.5
CAUCAGAAUUCAUGGAGGCUAG [hsa-miR-2115-3p],39,15.3,-5.23
UCAAGAGCAAUAACGAAAAAUGU [hsa-miR-335-5p],79.4,-9.96,37.7
AAAUUAUUGUACAUCGGAUGAG [hsa-miR-944],33.3,9.85,-36.2
UCUGGGGUCUUGGGCCAUC [hsa-miR-7155-5p],10.2,34.2,-0.455
UAAAGUGCUGACAGUGCAGAU [hsa-miR-106b-5p],91.2,-11.2,5.03
CAGGGGCUGGGGUUUCAGGUUCU [hsa-miR-6813-5p],23.1,-4.41,-16.1
UUAGAGGCUGGAAUAGAGAUUCU [hsa-miR-6866-5p],14.1,9.98,-0.659
GAGCUUAUUCAUAAAAGUGCAG [hsa-miR-590-5p],66.5,-0.31,-1.22
AUUGCCUAACAUGUGCCAGAA [hsa-miR-4774-3p],26.6,13.7,-31.6

Sequence,percent viability (MCF10A [1]) [%],one-nucleolus phenotype percent effect (MCF10A [2]) [%],5+ nucleoli phenotype percent effect (MCF10A [3]) [%]
GUGGAAAGCAUGCAUCCAGGGUGU [hsa-miR-3978],61.1,15,-30.5
AGACAUCAAGAUCAGUCCCAAA [hsa-miR-3913-3p],21.7,34.3,10.4
AACGGGAAUGCAGGCUGUAUCU [hsa-miR-4681],30.6,-21,46
UACGUCAUCGUUGUCAUCGUCA [hsa-miR-598],151,-26.8,47.8
AAUCAUGUGCAGUGCCAAUAUG [hsa-miR-96-3p],28.5,1.6,24.5
CACAAGGUAUUGGUAUUACCU [hsa-miR-624-3p],21.1,71,-46.2
UCCUGUACUGAGCUGCCCCGAG [hsa-miR-486-5p],41.3,4.53,1.79
AAAACUAGGACUGUGUGGUGUA [hsa-miR-7844-5p],40.6,15.8,-30.8
GUGAGUGGGAGCCCCAGUGUGUG [hsa-miR-1238-5p],95.1,-21.4,22.1
AUCGCUGCGGUUGCGAGCGCUGU [hsa-miR-639],129,-17.2,61.4
UUCUCGAGGAAAGAAGCACUUUC [hsa-miR-516a-5p],127,-19.5,22.1
CACAUGGCCGAAACAGAGAAGU [hsa-miR-942-3p],32.7,-19.9,-8.03
CGGGUGGGAGCAGAUCUUAUUGAG [hsa-miR-6766-5p],76.6,-20.9,56.1
CUUCCUCGUCUGUCUGCCCC [hsa-miR-1238-3p],74.5,13.2,-4.82
CUCCCCUCUCUUUCCUGUUCAG [hsa-miR-6826-3p],52.3,0.6,-9.68
UAGCACCAUUUGAAAUCGGUUA [hsa-miR-29c-3p],138,-21,38
CAGGGCUCAGGGAUUGGAUGGAGG [hsa-miR-5088-5p],86.9,-17.9,15.2
CAACCACCACUGUCUCUCCCCAG [hsa-miR-6776-3p],91.3,-24.4,48.4
CAUUGCACUUGUCUCGGUCUGA [hsa-miR-25-3p],96.4,3.94,-21.1
UUACAGUUGUUCAACCAGUUACU [hsa-miR-582-5p],165,-29.2,12.8

Sequence,percent viability (MCF10A [1]) [%],one-nucleolus phenotype percent effect (MCF10A [2]) [%],5+ nucleoli phenotype percent effect (MCF10A [3]) [%]
UGCAGGGGUCGGGUGGGCCAGG [hsa-miR-6722-3p],45.7,9,-25.2
UACGCGCAGACCACAGGAUGUC [hsa-miR-3939],38.1,-5.45,11.7
AAACUCUACUUGUCCUUCUGAGU [hsa-miR-618],46.5,10.9,-16.4
GCUCAUCCCCAUCUCCUUUCAG [hsa-miR-6870-3p],115,-31.1,36.6
UUUUGCAAUAUGUUCCUGAAUA [hsa-miR-450b-5p],108,-22.9,14.4
UAGGGAUGGGAGGCCAGGAUGA [hsa-miR-6757-5p],41.1,3.26,2.44
GUGAGUAGUGGCGCGCGGCGGC [hsa-miR-6869-5p],32.4,12.6,-16.7
AAACUACUGAAAAUCAAAGAU [hsa-miR-606],133,-12.6,18.1
CUACUUCUACCUGUGUUAUCAU [hsa-miR-3682-5p],25.2,19.8,-33
GGGACCCAGGGAGAGACGUAAG [hsa-miR-711],80.1,-15.3,30.4
UGCCUCCUUGGUCUCCGGCAG [hsa-miR-6791-3p],22.2,-3.74,-9.62
UUCAAGUAAUUCAGGUG [hsa-miR-1297],121,-17.3,45.2
AACGGCAAUGACUUUUGUACCA [hsa-miR-548al],58.9,-4.22,-4.48
UGGAAGGAGGUUGCCGGACGCU [hsa-miR-4533],46.4,9.34,-14.3
UAGCAGCACAUAAUGGUUUGUG [hsa-miR-15a-5p],17.3,40.1,-43.7
AGCUGAGCUCCAUGGACGUGCAGU [hsa-miR-4663],67,-21.4,16.3
CCCUCUCUGUCCCACCCAUAG [hsa-miR-6769b-3p],73.7,-27.6,91.5
ACUGGCAUGCUGCAUUUAUAUA [hsa-miR-4799-3p],66.3,-19.8,50.9
GCAGGAACUUGUGAGUCUCCU [hsa-miR-873-5p],122,-17.4,31.2
